Measurements: article PMC3222871

Target: T1, human POT1 (human, UniProt Q9NUX5 1-634)
T1 sequence: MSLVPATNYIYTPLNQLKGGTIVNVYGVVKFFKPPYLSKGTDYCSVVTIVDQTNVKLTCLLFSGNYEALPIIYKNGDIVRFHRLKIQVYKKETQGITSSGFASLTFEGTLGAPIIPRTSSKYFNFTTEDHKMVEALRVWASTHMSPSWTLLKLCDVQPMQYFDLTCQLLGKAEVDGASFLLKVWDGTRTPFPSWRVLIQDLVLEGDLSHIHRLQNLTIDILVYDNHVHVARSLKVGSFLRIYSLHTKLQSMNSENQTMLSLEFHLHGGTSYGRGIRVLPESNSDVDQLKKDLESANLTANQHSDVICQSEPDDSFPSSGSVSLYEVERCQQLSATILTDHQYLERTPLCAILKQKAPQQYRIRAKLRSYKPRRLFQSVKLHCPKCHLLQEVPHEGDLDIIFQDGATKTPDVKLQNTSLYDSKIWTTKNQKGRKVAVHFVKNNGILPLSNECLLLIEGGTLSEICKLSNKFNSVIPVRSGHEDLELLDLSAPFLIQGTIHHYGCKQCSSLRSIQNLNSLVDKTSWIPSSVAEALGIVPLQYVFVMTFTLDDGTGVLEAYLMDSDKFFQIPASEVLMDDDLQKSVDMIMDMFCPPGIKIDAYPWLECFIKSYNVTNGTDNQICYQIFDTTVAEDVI
Assay: EMSA

## TTTTTTTTTTTTTTTTTTTTTTTTTTTTTTTTTT (ssDNA) [dT34]
  binding result: no binding
